Measurements as given in PMC3986562.

Assays:
F-Actin [1] = target: F-Actin (UniProt P68135); assay: co-sedimentation; Actin pre-polymerized, sedimentated and then incubated with Simiate or the control protein; 100,000 g for 1 h; supernatant and pellet by SDS-PAGE
F-Actin [2] = target: F-Actin (UniProt P68135); assay: co-sedimentation; G-Actin polymerized 2.5 h at 25°C in polymerization buffer (5 mM Tris pH 8.0, 0.2 mM CaCl2, 1 mM ATP, 0.5 mM DTT, 5 mM KCl, 2 mM MgCl2) with equal amounts (0.125 μg/μl) of Simiate or GST; 100,000 g for 1 h; supernatant and pellet by SDS-PAGE
G-Actin = G-Actin (UniProt P68135)

recombinant Simiate (natural protein)
percent of the total Simiate content in the sediment (F-Actin [1]): 50.8% | percent of the total Simiate content in the sediment (F-Actin [2]): 51.4% | decrease in amount of Actin polymerized after a period of 3 h (sedimentation assay), against Actin alone (G-Actin): 29%
